The values that follow come from the DeepSol protein solubility set.

The series is described as follows: soluble on expression in E. coli; label from the status in PepcDB or PDB records.
Regarding “MAEWCADHLRNCEGWKSAGLELSTTSDENAKWLDACIRQLVSWSDCTSLGGFHTSIEKLVASDPEAIMARTFLVGLSGLGTEAAARNVEFAKKMDQLEIDAEKYGNAREKRHAKAAILWGRGKHHEAAIEWDKLLDDYPTDLIAVKFSHDAHFFNGNQIGKKNAIEKVIHKWNADLPCYSYLHGMYAFGLEECGIYDDAETQADRALQLNRFDCWASHAKAHVLEMNGRHKEGKEFMYKTEDDWRQGWMLASHNYWHTALFHIEYAEYESALGIFDREIANRFNKTNSLLDMVDASSLLWRLELEGVNVGRDRWRKIEHLSKFIDNHSIVFNDVHLGLAIYRQEDLETEKKLRNSLEKYSSLLSEDNAQISKTIGMPLYDGMLDFARCDYDTAAETMYPIRDKVVQIGGSHAQRDLFVQTLIQSCILSKDPKNWALTPELLVERETLKHDSLLGQRLADKFRALHPL”, the “soluble on expression in E. coli” value is given as “not soluble”.
To “MAFEESLVMVSSLSRLSICTSSAYDEAATKNQPDSCVSTSLENFDGAEADGEVSDDGEGKENVRESDSDKETRGFYSLPVTPSRRRRKLTVSGELDANESNKNGSKCSLRRQRREKKKKGVNGECDVGGREGLTVLTRARGGDRSLRMGLQEVKACRDLGFELEVPVPGRISVSTTGSNFDTQTSSGGDSPIATWRISSPGDDPKEVKARLKVWAQAVALASATRQAS” belongs “not soluble”.
Consider “MAFEMAPADPTLDLNMQLTKLGHGLLSGKYSMPATQKDATTGDPRQEGIPPRMFKNVIAASHAEFSSMRQQDALDFFLHLVGKVERASNTTPDLDPSRSFKFGIEEKILCPSGKVGYNKREDCILSLNIPLHEATNKDELEAFHKQKAGKGLEENDMRSSDEIVRPRVPLEACLANFASSEPIEDYYSSALKGMTTAIKTTGLTSFPDYLVLHMRKFVMEEGWVPKKLDVYIDVPDVIDISHMRSKGLQPGEELLPDGVPEEVMESAQPVANEEIVAQLVSMGFSQLHCQKAAINTSNAGVEEAMNWLLSHMDDPDIDAPISHQTSDIDQSSVDTLLSFGFAEDVARKALKASGGDIEKATDWVFNNPNASVSDMDVSSSNSAQTPAQSGLPDGGGKYKLFGIVSHMGTSVHCGHYVAHILKEGRWVIFNDDKVGISTDPPKDMGYVYFFQRLD”, for which the “soluble on expression in E. coli” value was “soluble”.
For “MAFGLPDTAALNKAADQKTSVSMPVRGRLVMNDSGILDVQLVKTNTAGAVKVARAVLDKETGYWGYTLPAVADVPAQTIFVSPADALGANGPLTLSGPVPLPERILHTGDQISAPQATDKTVTPVADDLDFDDIILVFPPESGLKPLYVMYRSPRNMPGTVSGKGLEHHHHHH” the value was “soluble”.
Consider “MAFGVLALVHTACENAKYDVIDNLVYINEASTSKTKELTLTEGTTRTSLTVRLVNIINQTIKANLFIDESVLDAYNKKNETNYKMPPKEYISFPESVTIEAGSVSADPVNVDIKSFEAEGGAQYAIPISIKNVEGGIEKSESSSSFLLVLVKPLKQAVPKLTWYNGMHAAPEGAWGLALPNYTLEWWSKVTSKSGNGGYTKNNQAIINSGGLGTELYIRFGDLIYSENGSYKNNFLQVKTMGSQFDTGDPTKGKGLEAQKWYHFAVSYDAASGTTLLYQNGTVVASLSSSIGQPMNIDQFQMISSGEEYFPDFCEMCQVRFWKVTRTVNQIKKSMYTEVDYTDKNLLLYLPMNEGEGATILHDVTGNGHDVEIGNSNLGNENRQKVTWETYSFAQ”, for which the “soluble on expression in E. coli” value is reported as “not soluble”.
As to “MAFIHTSLTRLMRFAVDQTKDIIEPLMVTKVLTEFSESENDGLSHYAHYAKFHNYLVPNMAKLAEYSIEERVRVIFGFAAVVSDDFLKQIQREGLVHLDKKKRICKFTSHNGKWKLEGDHSHSARMKRRWSMRVRVVVGLPSLMNFLVEKTKDIIEPMLASAAFREFSESEDGGLPEHAYYNHFHKNVAPNMAKIEEYSIEERVRVMFALAGRVSADFRAQTKGLVELDDGKRISKFTSTDGKLKLEGDHSDSARRKRSAAFYRKTDHHCRSANDSKPRRKNGRQSDSEFSDKSGSDEDDVESAISYGNSPKRARCEKSADPEMHVSSGSDDDEVEDVGGMDEEPVLLPIDSDESHIGHLQNGEEMMVEDDNQPIPEDPQYSANSSHQGRRMSGRIQEKLSASIAQETTDAAVAIPHVPILNPPFESDDEEVKYIGAVKGQPKPGPIESVFDQINNRDHFQGNQEYRNQSISERKVDVPLFVEHQQISLSAENRATSAEWKSIFLHDFLKQLTQFICFFECSELAEIKRNIKEVMADEGKISSFQKLEIIDIRTVLGAFFFGVSRKIKSTGSNNSTMKAKDFLVTFKYFLLGLDFSELLELSTVFKRKLTSSHVQRHPPSSPKPTLHNF”, the “soluble on expression in E. coli” value is recorded as “not soluble”.
For “MAFTPFPPRQPTASARLPLTLMTLDDWALATITGADSEKYMQGQVTADVSQMAEDQHLLAAHCDAKGKMWSNLRLFRDGDGFAWIERRSVREPQLTELKKYAVFSKVTIAPDDERVLLGVAGFQARAALANLFSELPSKEKQVVKEGATTLLWFEHPAERFLIVTDEATANMLTDKLRGEAELNNSQQWLALNIEAGFPVIDAANSGQFIPQATNLQALGGISFKKGCYTGQEMVARAKFRGANKRALWLLAGSASRLPEAGEDLELKMGENWRRTGTVLAAVKLEDGQVVVQVVMNNDMEPDSIFRVRDDANTLHIEPLPYSLEELEHHHHHH” the value was “not soluble”; for “MAGASHDIHPPKVEYFDLRDHTNTDPKGFVRHVDHYRVEPWGLYMARTSDHPQFHYLESWLLPDLGLRASIFHYHPYHQRDQDHYVDIGTFTRGDDVWKSEDHYLDLVVRTGRDTELLDVDELMEAHTTGLLDTATAEQAILTATTAIDGIAAHGHDLGRWLASIGMPIDWR”, “soluble”; for “MAGDPMRKSKLTFIATFLILLFLSMPYKAHAASQTPITRADAEQRALTMINLNWTYSKSKNGVLPSAYSGSITAPSQFRGIENVVATGIPYCWGGFDGLNSSSYGESWTNFTDAVNKGAFVGNVKSSSYGHITGTAGLDCSGFVQATFNIKDYKLSTSTIFNQYFTKIDIKDIKHMDILNLPGNHVVIFDKWGTRNGVNGAYTYEATPDTTYGGIQGTKQYFMSMNTVSQYIPGRYVNIKEVAYVQVINASSLNIRTGPSTSYPIIGTISQNQIAEVTGYSSDGTWYKIKINGIEGYASSTYLTYVNNLEHHHHHH”, “not soluble”.
To “MAGDPMRMVAHRFLRPQEAHMQVLVRDNNVDQALRILKKKLQREGVFREMRLREAFEKPSIKKAREKAEAIGRQRKLARKQMQREGLLPTKPRKDKLEHHHHHH” belongs “not soluble”.
For “MAGDPMSMHPALKYIQGYPQHIVEQVAQLIANDKLIPWFEQRYPERHDIQSEKALFDFTMALKNQYMKKTAPLSKVVYDGKIHLINNALGLHSYVSRVHGNKLKAKNEIRIANVFKQAPEPLLRMLVVHELAHLKEKEHNKAFYQLCCHMEPNYHQLELDARLYMMVLELKAGKALEHHHHHH” the value was “not soluble”; for “MAGDPMVMLNTHVVECLQACGRCAAACDYCASSCLREGHGADMARCIALDLDCAAACRLCAAMMARESEFSTHMCTLCARICEVCGDECARHEPRHCQECATACHACASACRAMARPLEHHHHHH”, “soluble”; for “MAGFSVNSPKARKSDQELVAGVLEDKKQFAAIVQRYEEPLFRYIVRQGARDRELARDILQEVFIKVYLHLNDYDASLPFSSWIYRIAHNETITHFRKEKNRPLVLDKGDDDEFFGKIVDDLELSRADGQYDVSDIQTVLERLEPRYRDILVLKFFEDKSYEEISDILQMPQGTVATLINRAKKKVKASLEKN”, “not soluble”.
Take “MAGHSHWAQIKHKKAKVDAQRGKLFSKLIREIIVATRLGGPNPEFNPRLRTAIEQAKKANMPWENIERAIKKGAGELEGEQFEEVIYEGYAPGGVAVMVLATTDNRNRTTSEVRHVFTKHGGNLGASGCVSYLFERKGYIEVPAKEVSEEELLEKAIEVGAEDVQPGEEVHIIYTVPEELYEVKENLEKLGVPIEKAQITWKPISTVQINDEETAQKVIKLLNALEELDDVQQVIANFEIPEEILQKVG”: the “soluble on expression in E. coli” value is on record as “soluble”.
For “MAGLLKESMRIKMYMEGTVNGHYFKCEGEGDGNPFAGTQSMRIHVTEGAPLPFAFDILAPCCESRTFVHHTAEIPDFFKQSFPEGFTWERTTTYEDGGILTAHQDTSLEGNCLIYKVKVHGTNFPADGPVMKNKSGGWEPSTEVVYPENGVLCGRNVMALKVGDRHLICHHYTSYRSKKAVRALTMPGFHFTDIRLQMLRKKKDEYFELYEASVARYSDLPEKAN” the value was “soluble”; for “MAGLRSFSIVMPAYNVVTQRGERIFRETLESIAASCRYLQQHFPYTPEGELILISDGSTDRTCDVAMAGWPNAVPLQLVGLPTNVGIAAARNIGVRLAKGEVIFFCDADDLYRPEHLFLALSVLNQPLPEPYAPAYFGAVRTGVYCRDRLHPYWHKSLEQTLVLNLAVRREVHEFIGGFPEDEVFRQFRYGAEDVAYAYWLHQFCHTARLEQRTVEYRRFPLEHHHHHH”, “soluble”; for “MAGNANSVDEEVTRILGGIYLGGIRPIIDHRPLGAEFNITHILSVIKFQVIPEYLIRKGYTLKNIPIDDDDVTDVLQYFDETNRFIDQCLFPNEVEYSPRLVDFKKKPQRGAVFAHCQAGLSRSVTFIVAYLMYRYGLSLSMAMHAVKRKKPSVEPNENFMEQLHLFEKMGGDFVDFDNPAYKQWKLKQSIKLDPSGSELVSNSGMFKDSESSQDLDKLTEAEKSKVTAVRCKKCRTKLALSTSFIAHDPPSKESSEGHFIKRAANSHRIIDIQESQANCSHFFIEPLKWMQPELQGKQELEGKFSCPGCSSKVGGYNWKGSRCSCGKWVIPAIHLQTSKVDQFPLQSTALPNMVNFESEKVNR”, “not soluble”.
To “MAGRVHPRQLAFSLPHAESLSRDNFLEGPANAAGLALIDGWPEWPNRIMWLAGPEGSGKSHLAAIWAEEAGARSTTANALSAAGVPGALATGALVVEDLKAKDFDERALFHLMNLAREDGAYVLFTGRDVPAALDIELNDLRSRLRAVPVVMLLPPDDQLFRGLIVKFCADRQLTVDESVVSYLATRLERSSAAARQAVELLDSEALRLGRPVTRALAAELLRDALEHHHHHH” belongs “soluble”; to “MAHCTEYMNAPKKLPADVAEELATTAQKLVQAGKGILAADESTQTIKKRFDNIKLENTIENRASYRDLLFGTKGLGKFISGAILFEETLFQKNEAGVPMVNLLHNENIIPGIKVDKGLVNIPCTDEEKSTQGLDGLAERCKEYYKAGARFAKWRTVLVIDTAKGKPTDLSIHETAWGLARYASICQQNRLVPIVEPEILADGPHSIEVCAVVTQKVLSCVFKALQENGVLLEGALLKPNMVTAGYECTAKTTTQDVGFLTVRTLRRTVPPALPGVVFLSGGQSEEEASVNLNSINALGPHPWALTFSYGRALQASVLNTWQGKKENVAKAREVLLQRAEANSLATYGKYKGGAGGENAGASLYEKKYVY”, “soluble”.
Regarding “MAHHHHHHMADYNAAGADTAVVDDNVPPGITTKQDEIIQYVAKYVVASCDGARYQDKVRTRTKHNPYFDFLNAKHPYHQYYQYLLESYRHWMRNSEAVGAGTWGGGVDATQGQGQQQQWNEEDYYQYYGAYAGQASGIEFQGNAAGQLG”, the “soluble on expression in E. coli” value is “not soluble”.
For “MAHHHHHHMAPQFYLGLQMSAIIAAIPDITRAHSAVEVSEMTDLLRAGVTPYARMLDDEDFNEEFVFGMYGMALDSWQRASYEEMTKKYHLALTAIHEAINPPFKLEHFQRITRLVLARAEHVPPADYYSGHLFLRRLRRRWRRLRKIPEPAQVALVPYVDLVNHSNRPNCTIRIGPSSVLSGESAITLFTLRDVLPGQELCRHYNFALNRASALFRYGFLPFDLISIVEHDAVDEHVMKSRDMFRAVSEEQLEHQRREAEEVARLEKLFQDAKQSHGGSGAAASTPPGRQPNPSLSDRVSRREE” the value was “not soluble”.
